Source: US20160331662A1, “Compositions that Inhibit and Prevent the Formation of Dental Caries and Methods of Using the Same” (priority 2014, published 2016)
No end group written: not given here. FAM = fluorescein amidite

How the values were obtained:
[1] = target: A3VP1^SspB (S. gordonii DL1 SspB, residues 386-805) (Streptococcus gordonii DL1) (UniProt P16952)
[2] = target: C123^SspB (S. gordonii DL1 SspB, residues 913-1406) (Streptococcus gordonii DL1) (UniProt P16952)
[3] = target: T1, FL^AgI/II (S. mutans UA159 Antigen I/II, full length recombinant construct) (Streptococcus mutans UA159), P23504; experiment: SPR; 2 µM FL^AgI/II incubated with 0.005 mM peptide, over immobilized iSRCR1
T1 chain: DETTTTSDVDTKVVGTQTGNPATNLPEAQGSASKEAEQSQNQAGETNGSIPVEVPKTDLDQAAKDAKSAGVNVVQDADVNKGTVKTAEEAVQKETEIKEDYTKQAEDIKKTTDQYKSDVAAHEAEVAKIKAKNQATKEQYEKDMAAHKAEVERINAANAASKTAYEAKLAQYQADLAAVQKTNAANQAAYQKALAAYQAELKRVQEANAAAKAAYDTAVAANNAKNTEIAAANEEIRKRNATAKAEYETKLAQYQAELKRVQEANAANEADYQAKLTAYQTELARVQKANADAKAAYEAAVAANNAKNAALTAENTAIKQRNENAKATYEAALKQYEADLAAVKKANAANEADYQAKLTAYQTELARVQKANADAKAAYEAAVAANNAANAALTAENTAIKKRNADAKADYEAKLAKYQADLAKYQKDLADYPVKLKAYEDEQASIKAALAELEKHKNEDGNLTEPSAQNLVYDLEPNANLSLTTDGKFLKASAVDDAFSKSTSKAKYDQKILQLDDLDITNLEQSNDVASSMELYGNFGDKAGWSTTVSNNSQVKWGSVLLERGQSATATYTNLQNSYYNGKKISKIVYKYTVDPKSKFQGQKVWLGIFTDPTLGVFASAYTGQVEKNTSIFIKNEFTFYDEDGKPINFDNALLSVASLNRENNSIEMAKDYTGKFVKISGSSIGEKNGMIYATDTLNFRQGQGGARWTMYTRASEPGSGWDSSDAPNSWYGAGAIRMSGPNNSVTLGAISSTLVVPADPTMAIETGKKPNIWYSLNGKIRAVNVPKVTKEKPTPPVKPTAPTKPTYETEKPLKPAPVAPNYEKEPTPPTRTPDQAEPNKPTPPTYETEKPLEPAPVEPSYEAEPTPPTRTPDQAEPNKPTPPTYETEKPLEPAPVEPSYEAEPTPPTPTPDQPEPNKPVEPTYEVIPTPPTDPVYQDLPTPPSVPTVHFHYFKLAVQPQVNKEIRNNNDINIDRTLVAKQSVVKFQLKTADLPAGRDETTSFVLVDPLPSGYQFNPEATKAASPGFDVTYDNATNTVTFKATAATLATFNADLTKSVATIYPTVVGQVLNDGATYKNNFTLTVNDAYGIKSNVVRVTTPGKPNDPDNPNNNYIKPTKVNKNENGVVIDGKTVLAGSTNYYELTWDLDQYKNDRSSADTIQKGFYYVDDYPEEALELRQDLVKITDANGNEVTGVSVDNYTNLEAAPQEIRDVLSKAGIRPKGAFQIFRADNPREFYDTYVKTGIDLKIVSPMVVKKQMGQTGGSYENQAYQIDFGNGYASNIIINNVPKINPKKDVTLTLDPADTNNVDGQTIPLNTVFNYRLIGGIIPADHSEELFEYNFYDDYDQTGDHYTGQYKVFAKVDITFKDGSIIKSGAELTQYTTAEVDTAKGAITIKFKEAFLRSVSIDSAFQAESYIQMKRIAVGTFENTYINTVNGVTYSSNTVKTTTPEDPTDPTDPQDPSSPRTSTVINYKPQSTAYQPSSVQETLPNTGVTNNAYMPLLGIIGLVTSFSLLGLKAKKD

[4] = target: T2, A3VP1^AgI/II (Streptococcus mutans UA159), P23504; experiment: SPR; 2 µM A3VP1^AgI/II incubated with 0.005 mM peptide, over immobilized iSRCR1
T2 chain: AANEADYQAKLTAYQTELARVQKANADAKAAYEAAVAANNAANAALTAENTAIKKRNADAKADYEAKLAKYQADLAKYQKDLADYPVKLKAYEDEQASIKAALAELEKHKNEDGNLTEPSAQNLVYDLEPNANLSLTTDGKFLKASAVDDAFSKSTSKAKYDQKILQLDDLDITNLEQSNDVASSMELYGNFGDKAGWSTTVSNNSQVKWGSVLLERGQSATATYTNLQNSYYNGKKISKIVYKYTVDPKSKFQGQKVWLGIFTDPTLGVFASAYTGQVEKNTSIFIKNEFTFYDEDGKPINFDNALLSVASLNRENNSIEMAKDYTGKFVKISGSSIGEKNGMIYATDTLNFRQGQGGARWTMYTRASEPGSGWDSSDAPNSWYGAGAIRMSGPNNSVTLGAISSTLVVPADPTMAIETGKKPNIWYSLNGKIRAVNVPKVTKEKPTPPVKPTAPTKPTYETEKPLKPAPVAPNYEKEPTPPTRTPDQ

[5] = target: A3VP1^SspB (S. gordonii DL1 SspB, residues 386-805) (Streptococcus gordonii DL1) (UniProt P16952); experiment: SPR; 2 µM A3VP1^SspB incubated with 0.005 mM peptide, over immobilized iSRCR1
[6] = target: T3, FL^SspB (S. gordonii DL1 SspB, residues 39-1433) (Streptococcus gordonii DL1), P16952
T3 chain: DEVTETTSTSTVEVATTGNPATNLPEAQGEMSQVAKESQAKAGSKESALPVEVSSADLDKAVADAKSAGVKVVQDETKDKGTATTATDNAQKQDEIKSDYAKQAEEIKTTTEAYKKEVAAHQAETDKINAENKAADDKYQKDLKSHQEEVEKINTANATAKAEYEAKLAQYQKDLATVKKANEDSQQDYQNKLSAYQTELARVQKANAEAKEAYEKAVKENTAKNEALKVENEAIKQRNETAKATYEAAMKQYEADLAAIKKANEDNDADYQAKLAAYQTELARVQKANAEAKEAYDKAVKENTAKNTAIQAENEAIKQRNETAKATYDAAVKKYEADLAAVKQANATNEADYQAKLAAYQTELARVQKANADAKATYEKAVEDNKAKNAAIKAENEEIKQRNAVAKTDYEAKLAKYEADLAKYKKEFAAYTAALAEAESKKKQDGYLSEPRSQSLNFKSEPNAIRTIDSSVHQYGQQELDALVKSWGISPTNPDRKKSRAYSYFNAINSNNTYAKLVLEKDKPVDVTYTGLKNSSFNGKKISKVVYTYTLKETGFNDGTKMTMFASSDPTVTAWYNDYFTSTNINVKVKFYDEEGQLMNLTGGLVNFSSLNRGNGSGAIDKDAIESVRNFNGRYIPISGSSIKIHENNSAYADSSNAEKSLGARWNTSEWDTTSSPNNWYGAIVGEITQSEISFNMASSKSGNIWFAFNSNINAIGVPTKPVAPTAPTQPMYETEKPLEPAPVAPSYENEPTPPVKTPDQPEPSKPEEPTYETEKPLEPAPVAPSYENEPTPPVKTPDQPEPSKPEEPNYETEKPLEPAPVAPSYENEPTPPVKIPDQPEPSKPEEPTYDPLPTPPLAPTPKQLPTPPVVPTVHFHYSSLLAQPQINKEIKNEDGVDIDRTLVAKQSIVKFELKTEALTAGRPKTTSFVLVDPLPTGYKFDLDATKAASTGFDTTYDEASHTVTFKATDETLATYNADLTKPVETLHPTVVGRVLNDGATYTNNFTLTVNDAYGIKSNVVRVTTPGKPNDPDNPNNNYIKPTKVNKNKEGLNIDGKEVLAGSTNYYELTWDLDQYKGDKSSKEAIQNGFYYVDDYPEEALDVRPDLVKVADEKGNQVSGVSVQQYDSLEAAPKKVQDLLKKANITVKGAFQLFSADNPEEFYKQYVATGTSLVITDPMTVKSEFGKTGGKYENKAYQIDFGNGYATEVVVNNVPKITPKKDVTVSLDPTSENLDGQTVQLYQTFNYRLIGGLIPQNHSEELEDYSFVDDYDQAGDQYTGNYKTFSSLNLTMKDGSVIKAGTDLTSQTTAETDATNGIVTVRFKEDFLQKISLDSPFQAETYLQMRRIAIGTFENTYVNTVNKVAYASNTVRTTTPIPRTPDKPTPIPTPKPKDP

[7] = target: T2, A3VP1^AgI/II (Streptococcus mutans …)
[8] = target: T4, C123^AgI/II (Streptococcus mutans UA159), P23504
T4 chain: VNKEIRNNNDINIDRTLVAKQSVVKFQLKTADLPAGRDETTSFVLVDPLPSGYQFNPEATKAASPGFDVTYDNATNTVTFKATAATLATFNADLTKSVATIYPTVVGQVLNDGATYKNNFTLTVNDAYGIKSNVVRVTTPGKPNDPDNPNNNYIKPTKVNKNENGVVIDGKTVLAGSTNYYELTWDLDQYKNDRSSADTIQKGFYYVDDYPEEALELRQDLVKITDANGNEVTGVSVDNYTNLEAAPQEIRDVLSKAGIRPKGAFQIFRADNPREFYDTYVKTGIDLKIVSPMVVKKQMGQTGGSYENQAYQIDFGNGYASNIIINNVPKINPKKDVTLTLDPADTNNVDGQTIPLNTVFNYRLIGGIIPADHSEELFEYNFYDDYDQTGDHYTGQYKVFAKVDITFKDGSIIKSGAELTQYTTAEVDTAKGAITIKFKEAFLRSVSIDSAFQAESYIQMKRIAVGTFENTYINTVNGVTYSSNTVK

[9] = target: T1, FL^AgI/II (S. mutans UA159 Antigen …)
[10] = target: T3, FL^SspB (S. gordonii DL1 SspB, residues …); experiment: SPR; 2 µM FL^SspB incubated with 0.005 mM peptide, over immobilized iSRCR1
[11] = target: GbpC (S. mutans), glucan binding protein C (Streptococcus mutans); experiment: SPR, peptide over immobilized GbpC

| Binder | % change of adherence to iSRCR123 [1] [%] | % change of adherence to iSRCR1 [2] [%] | % change of adherence to iSRCR123 [2] [%] | % improvement of adherence to iSRCR1 [3] [%] | % improvement of adherence to iSRCR1 [4] [%] | % change of adherence to iSRCR1 [5] [%] | % improvement of adherence to iSRCR123 [6] [%] | % improvement of adherence to iSRCR123 [7] [%] | % change of adherence to iSRCR1 [8] [%] | % change of adherence to iSRCR123 [8] [%] | % improvement of adherence to iSRCR123 [9] [%] | % improvement of adherence to iSRCR1 [10] [%] | Ka [11] [M⁻¹] | Kd [11] [nM] | koff [11] [s⁻¹] | kon [11] [M⁻¹ s⁻¹] |
| --- | --- | --- | --- | --- | --- | --- | --- | --- | --- | --- | --- | --- | --- | --- | --- | --- |
| QGRVEVLYRGSWGTVCK-{FAM} [SRCRP2 peptide with fluorescein amidite (FAM) at the carboxyl end (…-[FAM])] | 3 | 4 | 5 | 8 | 13 | 3 | 91 | 16 | 2.3 | 7 | 8 | 97 |  |  |  |  |
| ETNDANVVARQL (modifications not checked) [SRCR peptide …] |  |  |  |  |  |  |  |  |  |  |  |  | 2.57e+08 | 3.89 | 0.0573 | 1.47e+07 |
